Tests used:
[1] = molecular target: c-Myc-containing recombinant protein; experiment: SPR; KD against WT as reference
[2] = molecular target: c-Myc-containing recombinant protein; experiment: SPR (Biacore T200), c-Myc-containing recombinant protein immobilised, soluble Fab injected at 5-80 nM, 1:1 Langmuir fit

- Fold change [1]: 1 fold
- Kd [2]: 110 nM
- koff [2]: 0.018 s⁻¹
- kon [2]: 160000 M⁻¹ s⁻¹
B1: aM parental murine Fab (Fab, V domains shown)
VH: QIQLVQSGPELKKPGETVRISCKASGYTFTTAGMQWVQKMPGKGLKWIGWINTHSGVPKYAEDFKGRFAFSLETSASTAYLQMTNLNNEDTATYFCARGYGKGGYFAMDYWGQGTSVTVSS
VL: DVVMTQIPFSLPVSLGDQASISCRSSQSLVHSNGNTYLHWYVQKPGQSPKLLIYKVSNRFSGVPDRFSGSGSGTYFTLKISRVEAEDLGVYFCSQSTRVPWTFGGGTKLEIK

Source: patent US20120316085A1
